From patent US11071783 (DUKE UNIVERSITY, dated 2021) come the findings set out here.

Test [1] has as its target gp41 of HIV-1 isolate B.BG1168 Env (HIV-1). Briefly: cell-based or functional assay.
Test [2] deals with T1, STUB1 (STIP1 homology and U-box containing protein 1) (human, UniProt Q9UNE7 1-303).
T1 construct: also called E3 ubiquitin ligase STIP1 Homology and U-Box Containing Protein 1
T1 sequence (looked up): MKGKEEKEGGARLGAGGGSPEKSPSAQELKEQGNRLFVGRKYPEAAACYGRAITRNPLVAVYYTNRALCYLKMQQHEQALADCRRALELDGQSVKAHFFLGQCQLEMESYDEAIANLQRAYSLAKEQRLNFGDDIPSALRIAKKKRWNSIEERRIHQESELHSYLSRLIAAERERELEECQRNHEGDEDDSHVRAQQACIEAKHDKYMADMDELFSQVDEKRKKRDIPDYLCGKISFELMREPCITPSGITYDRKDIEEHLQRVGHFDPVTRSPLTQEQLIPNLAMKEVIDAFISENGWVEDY
Kind of test: protein microarray of >9400 human proteins.

With 4E10 (antibody), the lifetime of neutralization (t1/2), post-attachment TZM-bl assay with B.BG1168 in test [1] is 28.2 min. As to 10E8 (antibody), the lifetime of neutralization (t1/2), post-attachment TZM-bl assay with B.BG1168 in test [1] is 25.6 min.

B1: DH511.2 (antibody, V domains shown)
VH: QVQLVQSGGGLVKPGGSLTLSCSASGFFFDNSWMGWVRQAPGKGLEWVGRIRRLKDGATGEYGAAVKDRFTISRDDSRNMLYLHMRTLKTEDSGTYYCTMDEGTPVTRFLEWGYFYYYMAVWGRGTTVIVSS
VL: DIVMTQSPSSVSASVGDRVTITCRASQNIRDYLNWYQHKPGGSPRLLIYAASTLQTGVPSRFSGSGSGNLFTLTITNLQPEDFATYYCQENYNTIPSLSFGQGTKVDIR
notes: also called DH512; Ab510049
Regarding B1, the binding result in test [2] is “binds”.
